Measured values: article PMC3413123

Assays:
ParGβMetJ = ParGβMetJ (UniProt Q9KJ82); experiment: cross-linking
ParGβCopG = ParGβCopG (UniProt Q9KJ82); experiment: cross-linking

ParGβMetJ (from UniProt Q9KJ82 1-76)
stoichiometry N (ParGβMetJ): 2

ParGβCopG (from UniProt Q9KJ82 1-76)
stoichiometry N (ParGβCopG): 2
